According to publication PMC2241861:

Legend:
Assay in all cases: EMSA
TWINKLE Δ372-684 = target: T1, TWINKLE Δ372-684 (human, UniProt Q96RR1 43-371, del372-684)
T1 sequence: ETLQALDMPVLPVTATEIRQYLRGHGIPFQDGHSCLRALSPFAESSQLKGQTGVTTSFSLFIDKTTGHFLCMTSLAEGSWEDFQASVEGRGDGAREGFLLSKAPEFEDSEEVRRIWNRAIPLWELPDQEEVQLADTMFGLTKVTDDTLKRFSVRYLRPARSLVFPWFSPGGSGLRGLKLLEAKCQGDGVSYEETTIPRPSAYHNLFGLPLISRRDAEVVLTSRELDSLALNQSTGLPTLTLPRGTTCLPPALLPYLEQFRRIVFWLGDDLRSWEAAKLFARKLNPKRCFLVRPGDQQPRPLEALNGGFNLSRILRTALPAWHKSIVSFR

TWINKY = target: T2, TWINKY (human, UniProt Q96RR1-2 43-582, del579-684)
T2 sequence: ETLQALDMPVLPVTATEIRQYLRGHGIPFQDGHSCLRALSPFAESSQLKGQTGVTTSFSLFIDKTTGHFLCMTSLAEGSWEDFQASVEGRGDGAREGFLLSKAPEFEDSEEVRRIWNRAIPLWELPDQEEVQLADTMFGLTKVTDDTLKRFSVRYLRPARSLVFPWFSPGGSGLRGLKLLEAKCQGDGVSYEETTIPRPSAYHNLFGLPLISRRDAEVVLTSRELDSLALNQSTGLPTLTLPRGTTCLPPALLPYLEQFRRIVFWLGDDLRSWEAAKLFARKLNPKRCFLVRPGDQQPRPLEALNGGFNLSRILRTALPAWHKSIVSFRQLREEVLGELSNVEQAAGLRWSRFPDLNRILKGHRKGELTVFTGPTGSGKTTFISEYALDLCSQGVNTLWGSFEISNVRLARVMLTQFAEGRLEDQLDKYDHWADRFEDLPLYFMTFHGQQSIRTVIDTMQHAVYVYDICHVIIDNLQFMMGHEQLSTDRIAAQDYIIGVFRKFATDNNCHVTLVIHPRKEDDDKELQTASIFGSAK

TWINKLE Δ1-121 = target: T3, TWINKLE Δ1-121 (human, UniProt Q96RR1 122-684, del1-121)
T3 sequence: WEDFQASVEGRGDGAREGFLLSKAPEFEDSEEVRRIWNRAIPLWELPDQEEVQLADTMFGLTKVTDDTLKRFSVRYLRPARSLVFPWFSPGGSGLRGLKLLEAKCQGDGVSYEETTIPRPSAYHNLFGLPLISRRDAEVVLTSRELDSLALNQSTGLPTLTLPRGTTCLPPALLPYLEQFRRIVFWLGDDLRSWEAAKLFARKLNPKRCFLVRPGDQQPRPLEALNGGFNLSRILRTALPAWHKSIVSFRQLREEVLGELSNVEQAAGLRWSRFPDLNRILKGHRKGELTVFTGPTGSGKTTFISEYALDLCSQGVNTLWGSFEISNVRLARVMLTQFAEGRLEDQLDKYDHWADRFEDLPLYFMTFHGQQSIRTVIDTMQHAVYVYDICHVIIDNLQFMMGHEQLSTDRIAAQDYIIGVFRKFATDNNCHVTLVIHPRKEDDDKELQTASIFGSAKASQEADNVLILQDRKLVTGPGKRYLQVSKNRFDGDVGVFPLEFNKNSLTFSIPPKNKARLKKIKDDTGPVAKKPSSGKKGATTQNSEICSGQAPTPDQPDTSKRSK

[1] = target: T4, TWINKLE wt (lacks mitochondrial targeting sequence 1-42) (human, UniProt Q96RR1 43-684)
T4 sequence: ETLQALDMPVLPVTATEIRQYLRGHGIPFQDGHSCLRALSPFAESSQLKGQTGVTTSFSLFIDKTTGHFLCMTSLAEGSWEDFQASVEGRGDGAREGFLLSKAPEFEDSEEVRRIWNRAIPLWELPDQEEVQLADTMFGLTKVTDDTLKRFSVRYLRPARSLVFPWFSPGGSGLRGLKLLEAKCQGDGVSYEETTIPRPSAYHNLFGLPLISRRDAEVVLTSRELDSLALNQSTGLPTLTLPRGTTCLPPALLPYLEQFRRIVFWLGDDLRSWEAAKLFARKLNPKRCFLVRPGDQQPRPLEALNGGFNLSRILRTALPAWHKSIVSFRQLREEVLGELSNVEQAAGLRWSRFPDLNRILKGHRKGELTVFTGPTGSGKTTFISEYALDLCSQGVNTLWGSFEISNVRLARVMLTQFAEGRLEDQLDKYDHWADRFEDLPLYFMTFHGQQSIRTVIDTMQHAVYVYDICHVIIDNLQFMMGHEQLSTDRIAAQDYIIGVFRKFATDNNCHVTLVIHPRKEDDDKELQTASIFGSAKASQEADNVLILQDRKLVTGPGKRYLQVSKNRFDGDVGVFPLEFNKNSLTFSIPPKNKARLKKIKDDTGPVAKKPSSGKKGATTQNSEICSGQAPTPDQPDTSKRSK

[2] = target: T4, TWINKLE wt (lacks mitochondrial …); remark: listed apart in the source

B1: ds30 (dsDNA)
DNA 1: TGGCACGACAGGTTTCCCGACTGGAAAGCG
DNA 2: CGCTTTCCAGTCGGGAAACCTGTCGTGCCA
binding result (TWINKLE Δ372-684): no binding | binding result (TWINKY): no binding | binding result (TWINKLE Δ1-121): binds | Kd [1]: ~5 nM

B2: ds45 (dsDNA)
DNA 1: TGGCACGACAGGTTTCCCGACTGGAAAGCGGGCAGTCAGCTCTAG
DNA 2: CTAGAGCTGACTGCCCGCTTTCCAGTCGGGAAACCTGTCGTGCCA
binding result [2]: binds

B3: ds15 (dsDNA)
DNA 1: CTCTAGACTCGACCG
DNA 2: CGGTCGAGTCTAGAG
binding result [2]: binds

TTTTTTTTTTTTTTTTTTTTTTTTTTTTTTTTTTTTTTTTTTTTT (ssDNA) [ss45 poly-dT]
binding result [2]: binds

TTTTTTTTTTTTTTT (ssDNA) [ss15 poly-dT]
binding result [2]: no binding

TTTTTTTTTTTTTTTTTTTTTTTTTTTTTT (ssDNA) [ss30 poly-dT]
binding result (TWINKLE Δ372-684): no binding | binding result (TWINKY): no binding | Kd [1]: ~5 nM
